# IntAct's records for PubMed 23386062
# B1: Ras-related protein Rab-9A (Homo sapiens), P51151 (parent)
# chain: MAGKSSLFKVILLGDGGVGKSSLMNRYVTNKFDTQLFHTIGVEFLNKDLEVDGHFVTMQIWDTAGQERFRSLRTPFYRGSDCCLLTFSVDDSQSFQNLSNWKKEFIYYADVKEPESFPFVILGNKIDISERQVSTEEAQAWCRDNGDYPYFETSAKDATNVAAAFEEAVRRVLATEDRSDHLIQTDTVNLHRKPKPSSSCC
# B2: Ras-related protein Rab-4B (Rattus norvegicus (Rat)), P51146 (parent)
# chain: MAETYDFLFKFLVIGSAGTGKSCLLHQFIENKFKQDSNHTIGVEFGSRVVNVGGKTVKLQIWDTAGQERFRSVTRSYYRGAAGALLVYDITSRETYNSLAAWLTDARTLASPNIVVILCGNKKDLDPEREVTFLEASRFAQENELMFLETSALTGENVEEAFLKCARTILNKIDSGELDPERMGSGIQYGDISLRQLRQPRSAQAVAPQPCGC
# Variants of: B1
# Details: with nisch_human NISCH
row,effect of a mutation on the interaction,Variant
1,disrupting interaction,S21D

# Variants of: B2
# Details: with nisch_human NISCH
row,effect of a mutation on the interaction,Variant
1,disrupting interaction,S22N
